Series [1] deals with T1, Atto550-SERF1a (human), O75920-2.
T1 sequence: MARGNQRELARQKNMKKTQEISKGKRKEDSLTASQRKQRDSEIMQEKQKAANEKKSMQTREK
Description: fluorescence anisotropy. On the technique in general: Polarisation of emitted light reports the rotation of a fluorescent probe.

Another series deals with MOAG-4 (C. elegans). Description: fluorescence anisotropy.

Regarding tRNA (type X-SA), the Kd in series [1] amounted to 1.1 µM.

As to ACUGCUAGAGAUUUUCCACAU [Cy3-R21(-)], the Kd with MOAG-4 (C. elegans) amounted to 4.79 µM.

The Kd is the constant that tells how readily two partners part at equilibrium. High values mean lower affinity, low ones higher affinity.

These data come from article doi:10.1101/713511.
